{
  "source": "patent US20220298218A1",
  "about": "(ANTAG THERAPEUTICS, published 2022)",
  "note": "*1 amine or outer side, *2 acyl side, *3 side chain or, on linkers, in order; H or OH if unused. Where no end group is shown, it is not given here. Side-chain parts run from the residue outwards. [ ]: non-standard residue; d: D form. The star is where a group is joined. C18 diacid = O=C(O)CCCCCCCCCCCCCCCCC(=O)*; γGlu = O=C(O)[C@H](CCC(=O)[*:2])N[*:1]; Nle = CCCC[C@H](N)C(=O)O; AEEA = NCCOCCOCC(=O)O",
  "data": [
    {"target": "T1, human GIP receptor (human, UniProt P48546 22-466)", "T1 sequence (looked up)": "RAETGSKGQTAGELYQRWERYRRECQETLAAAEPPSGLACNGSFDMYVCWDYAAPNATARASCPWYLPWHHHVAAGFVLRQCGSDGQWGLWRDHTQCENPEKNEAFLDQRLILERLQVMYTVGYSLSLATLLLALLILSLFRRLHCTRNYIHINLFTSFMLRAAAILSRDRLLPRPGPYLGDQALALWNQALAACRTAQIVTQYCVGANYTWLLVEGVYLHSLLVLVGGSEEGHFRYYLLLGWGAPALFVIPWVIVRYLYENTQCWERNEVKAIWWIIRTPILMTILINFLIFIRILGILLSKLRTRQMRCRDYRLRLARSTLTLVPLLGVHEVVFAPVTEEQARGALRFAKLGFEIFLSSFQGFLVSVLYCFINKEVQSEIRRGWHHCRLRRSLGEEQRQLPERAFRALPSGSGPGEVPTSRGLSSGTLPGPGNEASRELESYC", "experiment": "cell-based or functional assay", "units": {"cAMP agonism % Emax": "%", "cAMP antagonism": "nM", "cAMP antagonism % inhib": "%"}, "values": [
      {"binder": "EGTFISDYSIALDKIK([AEEA-AEEA-γGlu-C18 diacid])QQDFVNWLLEGGPSSGAPPPS-OH (N-terminus assumed; SMILES CC[C@H](C)[C@H](NC(=O)[C@H](CO)NC(=O)[C@H](Cc1ccc(O)cc1)NC(=O)[C@H](CC(=O)O)NC(=O)[C@H](CO)NC(=O)[C@@H](NC(=O)[C@H](Cc1ccccc1)NC(=O)[C@@H](NC(=O)CNC(=O)[C@@H](N)CCC(=O)O)[C@@H](C)O)[C@@H](C)CC)C(=O)N[C@@H](C)C(=O)N[C@@H](CC(C)C)C(=O)N[C@@H](CC(=O)O)C(=O)N[C@@H](CCCCN)C(=O)N[C@H](C(=O)N[C@@H](CCCCNC(=O)COCCOCCNC(=O)COCCOCCNC(=O)CC[C@H](NC(=O)CCCCCCCCCCCCCCCCC(=O)O)C(=O)O)C(=O)N[C@@H](CCC(N)=O)C(=O)N[C@@H](CCC(N)=O)C(=O)N[C@@H](CC(=O)O)C(=O)N[C@@H](Cc1ccccc1)C(=O)N[C@H](C(=O)N[C@@H](CC(N)=O)C(=O)N[C@@H](Cc1c[nH]c2ccccc12)C(=O)N[C@@H](CC(C)C)C(=O)N[C@@H](CC(C)C)C(=O)N[C@@H](CCC(=O)O)C(=O)NCC(=O)NCC(=O)N1CCC[C@H]1C(=O)N[C@@H](CO)C(=O)N[C@@H](CO)C(=O)NCC(=O)N[C@@H](C)C(=O)N1CCC[C@H]1C(=O)N1CCC[C@H]1C(=O)N1CCC[C@H]1C(=O)N[C@@H](CO)C(=O)O)C(C)C)[C@@H](C)CC)", "note": "[AT691]", "cAMP agonism % Emax": 7, "cAMP antagonism": 20, "cAMP antagonism % inhib": 75, "cAMP antagonism pIC50": 7.8},
      {"binder": "EGTFISDYSIA[Nle]DKIK([AEEA-AEEA-γGlu-C18 diacid])QQDFVNWLLEQKPSSGAPPPS-OH (N-terminus assumed; SMILES CCCC[C@H](NC(=O)[C@H](C)NC(=O)[C@@H](NC(=O)[C@H](CO)NC(=O)[C@H](Cc1ccc(O)cc1)NC(=O)[C@H](CC(=O)O)NC(=O)[C@H](CO)NC(=O)[C@@H](NC(=O)[C@H](Cc1ccccc1)NC(=O)[C@@H](NC(=O)CNC(=O)[C@@H](N)CCC(=O)O)[C@@H](C)O)[C@@H](C)CC)[C@@H](C)CC)C(=O)N[C@@H](CC(=O)O)C(=O)N[C@@H](CCCCN)C(=O)N[C@H](C(=O)N[C@@H](CCCCNC(=O)COCCOCCNC(=O)COCCOCCNC(=O)CC[C@H](NC(=O)CCCCCCCCCCCCCCCCC(=O)O)C(=O)O)C(=O)N[C@@H](CCC(N)=O)C(=O)N[C@@H](CCC(N)=O)C(=O)N[C@@H](CC(=O)O)C(=O)N[C@@H](Cc1ccccc1)C(=O)N[C@H](C(=O)N[C@@H](CC(N)=O)C(=O)N[C@@H](Cc1c[nH]c2ccccc12)C(=O)N[C@@H](CC(C)C)C(=O)N[C@@H](CC(C)C)C(=O)N[C@@H](CCC(=O)O)C(=O)N[C@@H](CCC(N)=O)C(=O)N[C@@H](CCCCN)C(=O)N1CCC[C@H]1C(=O)N[C@@H](CO)C(=O)N[C@@H](CO)C(=O)NCC(=O)N[C@@H](C)C(=O)N1CCC[C@H]1C(=O)N1CCC[C@H]1C(=O)N1CCC[C@H]1C(=O)N[C@@H](CO)C(=O)O)C(C)C)[C@@H](C)CC)", "note": "[AT690]", "cAMP agonism % Emax": 6, "cAMP antagonism": 15.9, "cAMP antagonism % inhib": 76, "cAMP antagonism pIC50": 7.8},
      {"binder": "EGTFISEYSIALEKIK([AEEA-AEEA-γGlu-C18 diacid])QQEFVEWLLAQKPSSGAPPPS-OH (N-terminus assumed; SMILES CC[C@H](C)[C@H](NC(=O)[C@H](CO)NC(=O)[C@H](Cc1ccc(O)cc1)NC(=O)[C@H](CCC(=O)O)NC(=O)[C@H](CO)NC(=O)[C@@H](NC(=O)[C@H](Cc1ccccc1)NC(=O)[C@@H](NC(=O)CNC(=O)[C@@H](N)CCC(=O)O)[C@@H](C)O)[C@@H](C)CC)C(=O)N[C@@H](C)C(=O)N[C@@H](CC(C)C)C(=O)N[C@@H](CCC(=O)O)C(=O)N[C@@H](CCCCN)C(=O)N[C@H](C(=O)N[C@@H](CCCCNC(=O)COCCOCCNC(=O)COCCOCCNC(=O)CC[C@H](NC(=O)CCCCCCCCCCCCCCCCC(=O)O)C(=O)O)C(=O)N[C@@H](CCC(N)=O)C(=O)N[C@@H](CCC(N)=O)C(=O)N[C@@H](CCC(=O)O)C(=O)N[C@@H](Cc1ccccc1)C(=O)N[C@H](C(=O)N[C@@H](CCC(=O)O)C(=O)N[C@@H](Cc1c[nH]c2ccccc12)C(=O)N[C@@H](CC(C)C)C(=O)N[C@@H](CC(C)C)C(=O)N[C@@H](C)C(=O)N[C@@H](CCC(N)=O)C(=O)N[C@@H](CCCCN)C(=O)N1CCC[C@H]1C(=O)N[C@@H](CO)C(=O)N[C@@H](CO)C(=O)NCC(=O)N[C@@H](C)C(=O)N1CCC[C@H]1C(=O)N1CCC[C@H]1C(=O)N1CCC[C@H]1C(=O)N[C@@H](CO)C(=O)O)C(C)C)[C@@H](C)CC)", "note": "[AT693]", "cAMP agonism % Emax": 0, "cAMP antagonism": 1.26, "cAMP antagonism % inhib": 96, "cAMP antagonism pIC50": 8.9},
      {"binder": "EGTFISDYSIA[Nle]DKIK([AEEA-AEEA-γGlu-C18 diacid])QQDFVEWLLAQKPSSGAPPPS-OH", "note": "[AT683]", "cAMP agonism % Emax": 0, "cAMP antagonism": 15.9, "cAMP antagonism % inhib": 93, "cAMP antagonism pIC50": 7.8},
      {"binder": "EGTFISDYSIALDKIK([AEEA-AEEA-γGlu-C18 diacid])QQDFVEWLLAQKPSSGAPPPS-OH (N-terminus assumed; SMILES CC[C@H](C)[C@H](NC(=O)[C@H](CO)NC(=O)[C@H](Cc1ccc(O)cc1)NC(=O)[C@H](CC(=O)O)NC(=O)[C@H](CO)NC(=O)[C@@H](NC(=O)[C@H](Cc1ccccc1)NC(=O)[C@@H](NC(=O)CNC(=O)[C@@H](N)CCC(=O)O)[C@@H](C)O)[C@@H](C)CC)C(=O)N[C@@H](C)C(=O)N[C@@H](CC(C)C)C(=O)N[C@@H](CC(=O)O)C(=O)N[C@@H](CCCCN)C(=O)N[C@H](C(=O)N[C@@H](CCCCNC(=O)COCCOCCNC(=O)COCCOCCNC(=O)CC[C@H](NC(=O)CCCCCCCCCCCCCCCCC(=O)O)C(=O)O)C(=O)N[C@@H](CCC(N)=O)C(=O)N[C@@H](CCC(N)=O)C(=O)N[C@@H](CC(=O)O)C(=O)N[C@@H](Cc1ccccc1)C(=O)N[C@H](C(=O)N[C@@H](CCC(=O)O)C(=O)N[C@@H](Cc1c[nH]c2ccccc12)C(=O)N[C@@H](CC(C)C)C(=O)N[C@@H](CC(C)C)C(=O)N[C@@H](C)C(=O)N[C@@H](CCC(N)=O)C(=O)N[C@@H](CCCCN)C(=O)N1CCC[C@H]1C(=O)N[C@@H](CO)C(=O)N[C@@H](CO)C(=O)NCC(=O)N[C@@H](C)C(=O)N1CCC[C@H]1C(=O)N1CCC[C@H]1C(=O)N1CCC[C@H]1C(=O)N[C@@H](CO)C(=O)O)C(C)C)[C@@H](C)CC)", "note": "[AT682]", "cAMP agonism % Emax": 0, "cAMP antagonism": 13.6, "cAMP antagonism % inhib": 89, "cAMP antagonism pIC50": 7.9},
      {"binder": "EGTFISDYSIALDKIK([AEEA-AEEA-γGlu-C18 diacid])QQDFVNWLLEQKPSSGAPPPS-OH (N-terminus assumed; SMILES CC[C@H](C)[C@H](NC(=O)[C@H](CO)NC(=O)[C@H](Cc1ccc(O)cc1)NC(=O)[C@H](CC(=O)O)NC(=O)[C@H](CO)NC(=O)[C@@H](NC(=O)[C@H](Cc1ccccc1)NC(=O)[C@@H](NC(=O)CNC(=O)[C@@H](N)CCC(=O)O)[C@@H](C)O)[C@@H](C)CC)C(=O)N[C@@H](C)C(=O)N[C@@H](CC(C)C)C(=O)N[C@@H](CC(=O)O)C(=O)N[C@@H](CCCCN)C(=O)N[C@H](C(=O)N[C@@H](CCCCNC(=O)COCCOCCNC(=O)COCCOCCNC(=O)CC[C@H](NC(=O)CCCCCCCCCCCCCCCCC(=O)O)C(=O)O)C(=O)N[C@@H](CCC(N)=O)C(=O)N[C@@H](CCC(N)=O)C(=O)N[C@@H](CC(=O)O)C(=O)N[C@@H](Cc1ccccc1)C(=O)N[C@H](C(=O)N[C@@H](CC(N)=O)C(=O)N[C@@H](Cc1c[nH]c2ccccc12)C(=O)N[C@@H](CC(C)C)C(=O)N[C@@H](CC(C)C)C(=O)N[C@@H](CCC(=O)O)C(=O)N[C@@H](CCC(N)=O)C(=O)N[C@@H](CCCCN)C(=O)N1CCC[C@H]1C(=O)N[C@@H](CO)C(=O)N[C@@H](CO)C(=O)NCC(=O)N[C@@H](C)C(=O)N1CCC[C@H]1C(=O)N1CCC[C@H]1C(=O)N1CCC[C@H]1C(=O)N[C@@H](CO)C(=O)O)C(C)C)[C@@H](C)CC)", "note": "[AT689]", "cAMP agonism % Emax": 3, "cAMP antagonism": 10, "cAMP antagonism % inhib": 82, "cAMP antagonism pIC50": 8}
    ]}
  ]
}
